{"source": "paper PMC11711097", "about": "(Nature, 2024)", "key": {"cross-linking": {"molecular_target": "the molecule itself", "test": "cross-linking"}, "cryo-EM structure": {"molecular_target": "the molecule itself", "test": "cryo-EM structure"}, "[1]": {"molecular_target": "Full-length mouse NINJ1(K45Q) (mouse, UniProt O70131, K45Q)", "test": "SPR"}}}
{"binder": "Endogenous NINJ1 of mouse bone marrow-derived macrophages (natural protein) MESGTEEYELNGDLRPGSPGSPDALPPRWGLRNRPINVNHYANKKSAAESMLDIALLMANASQLKAVVEQGNDFAFFVPLVVLISISLVLQIGVGVLLIFLVKYDLNNPAKHAKLDFLNNLATGLVFIIVVVNIFITAFGVQKPVMDVAPRQ", "values": [{"measurement": "stoichiometry N", "setting": "cross-linking", "value": 2, "unit": "subunits"}]}
{"binder": "Full-length mouse NINJ1(K45Q) (natural protein) MESGTEEYELNGDLRPGSPGSPDALPPRWGLRNRPINVNHYANKQSAAESMLDIALLMANASQLKAVVEQGNDFAFFVPLVVLISISLVLQIGVGVLLIFLVKYDLNNPAKHAKLDFLNNLATGLVFIIVVVNIFITAFGVQKPVMDVAPRQ", "values": [{"measurement": "stoichiometry N", "setting": "cryo-EM structure", "value": 4, "unit": "subunits"}]}
{"binder": "Nb538 (His-tagged, purified) (VHH) VHH: EVQLVESGGGLVQPGGSLRLSCAASGFNVYSSSYYYVGWVRRAPGKGEELVARISPSYGYTYYADSVKGRFTISADTSKNTAYLQMNSLRAEDTAVYYCEVYIFGQYFESGQGTLVTVSS", "values": [{"measurement": "Kd", "setting": "[1]", "value": 24, "unit": "nM"}]}
